Results from IntAct's records for PubMed 22960633.

What was measured:
gnat1_human GNAT1 = gnat1_human GNAT1 (UniProt P11488)
arl3_mouse Arl3 = arl3_mouse Arl3 (UniProt Q9WUL7)
Sequence of arl3_mouse Arl3 (Q9WUL7 whole entry): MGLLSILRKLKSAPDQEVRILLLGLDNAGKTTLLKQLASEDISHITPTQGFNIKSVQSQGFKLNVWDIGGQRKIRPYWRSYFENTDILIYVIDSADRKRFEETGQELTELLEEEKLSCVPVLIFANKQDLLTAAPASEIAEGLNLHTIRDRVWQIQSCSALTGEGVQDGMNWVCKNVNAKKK

Sequence of gnat1_human GNAT1 (P11488 whole entry): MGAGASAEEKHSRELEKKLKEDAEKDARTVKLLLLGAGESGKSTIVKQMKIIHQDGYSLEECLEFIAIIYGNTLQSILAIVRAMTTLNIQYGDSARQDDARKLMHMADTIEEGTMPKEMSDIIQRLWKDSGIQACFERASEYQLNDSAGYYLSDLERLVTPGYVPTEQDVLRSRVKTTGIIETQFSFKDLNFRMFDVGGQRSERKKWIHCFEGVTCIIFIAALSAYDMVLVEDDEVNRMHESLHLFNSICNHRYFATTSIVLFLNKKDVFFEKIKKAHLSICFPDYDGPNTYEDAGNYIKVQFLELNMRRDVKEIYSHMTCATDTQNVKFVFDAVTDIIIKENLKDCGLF

Protein unc-119 homolog A (Homo sapiens) (from UniProt Q13432) Y194A
effect of a mutation on the interaction (gnat1_human GNAT1): decreasing interaction
effect of a mutation on the interaction (arl3_mouse Arl3): decreasing interaction
